Laboratory results published in US20240255522A1.

How the values were obtained:
Conditions in all cases: modification not given
[1] = biological target: HLA-DRB1*04:01 MHCII molecule (human); experiment: competition ELISA; 50 nM huCLIP-bio
[2] = biological target: HLA-DRB1*08:01 MHCII molecule (human); experiment: competition ELISA; 50 nM huCLIP-bio
[3] = biological target: HLA-DRB1*09:01 MHCII molecule (human); experiment: competition ELISA; 50 nM huCLIP-bio
[4] = biological target: HLA-DRB1*11:01 MHCII molecule (human); experiment: competition ELISA; 50 nM huCLIP-bio
[5] = biological target: HLA-DRB1*15:01 MHCII molecule (human); experiment: competition ELISA; 50 nM huCLIP-bio
[6] = biological target: HLA-DRB1*04:01 MHCII molecule (human); experiment: competition ELISA; 25 nM huCLIP-bio
[7] = biological target: HLA-DRB1*08:01 MHCII molecule (human); experiment: competition ELISA; 25 nM huCLIP-bio
[8] = biological target: HLA-DRB1*09:01 MHCII molecule (human); experiment: competition ELISA; 25 nM huCLIP-bio
[9] = biological target: HLA-DRB1*11:01 MHCII molecule (human); experiment: competition ELISA; 25 nM huCLIP-bio
[10] = biological target: HLA-DRB1*15:01 MHCII molecule (human); experiment: competition ELISA; 25 nM huCLIP-bio

B1: mCLIP (peptide)
chain: PVSQMRMATPLLMRP
Work on B1 yielded an IC50 [1] of 36.5 nM, an IC50 [2] of 69.4 nM and an IC50 [3] of 60.7 nM. The IC50 [4] was 36.8 nM, the IC50 [5] was 46.1 nM and the IC50 [6] was 31.2 nM. It also gave an IC50 [7] of 36.6 nM, an IC50 [8] of 25 nM and an IC50 [9] of 22.6 nM. It also gave an IC50 [10] of 14.6 nM.
